Source: the Immune Epitope Database (IEDB)

Experiments:
Assay in all cases: IEDB peptide-MHC binding, purified MHC/competitive/radioactivity; filed as Kd, often an IC50 or EC50 that approximates it; ≥ and ≤ were set here for values at or beyond the usual limits of such assays
Conditions in all cases: source organism: Toxoplasma gondii
HLA-B*35:03 = target: HLA-B*35:03
HLA-B*54:01 = target: HLA-B*54:01
HLA-B*07:02 = target: HLA-B*07:02
HLA-B*53:01 = target: HLA-B*53:01
HLA-B*42:01 = target: HLA-B*42:01
HLA-B*35:01 = target: HLA-B*35:01
HLA-B*51:01 = target: HLA-B*51:01

HPGSVNEFDF
Kd (HLA-B*35:03): 11.5 µM
Kd (HLA-B*54:01): 0.854 µM
Kd (HLA-B*07:02): 3.62 µM
Kd (HLA-B*53:01): 5.52 µM
Kd (HLA-B*42:01): 0.877 µM
Kd (HLA-B*35:01): 2.09 µM
Kd (HLA-B*51:01): 14.7 µM
